Test results reported in patent US20190359723A1 (CARSGEN THERAPEUTICS, published 2019).

T1: Murine IL-13RA2 (murine, UniProt O88786 22-334, limits assumed)
T1 construct: Bought recombinant protein; coated on the ELISA plate at 5 ug/ml
T1 sequence (looked up): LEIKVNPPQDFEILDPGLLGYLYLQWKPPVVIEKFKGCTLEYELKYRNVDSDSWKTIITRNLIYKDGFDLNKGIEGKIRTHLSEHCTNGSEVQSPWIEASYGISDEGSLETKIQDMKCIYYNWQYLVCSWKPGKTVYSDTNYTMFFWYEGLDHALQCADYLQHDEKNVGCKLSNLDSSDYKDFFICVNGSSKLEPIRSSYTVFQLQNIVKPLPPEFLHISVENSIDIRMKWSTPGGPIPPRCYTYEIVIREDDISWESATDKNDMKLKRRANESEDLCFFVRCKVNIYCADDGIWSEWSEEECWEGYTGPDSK

B1: 1B11 (scFv) (scFv)
scFv: EVQLLESGGGLVQPGGSLRLSCAASGFTFSRDALNWVRQAPGKGLEWVSAISGSGGSTFYADSVKGRFTISRDNSKNTLYLQMNSLRAEDTAVYYCAKVRYGWGAGAFDYWGQGTLVTVSSGGGGSGGGGSGGGGSDIQMTQSPSTLSASVGDRVTITCRASQSISSWLAWYQQKPGKAPKLLIYDASSLESGVPSRFSGSGSGTEFTLTISSLQPDDFATYYCQQYDTYPPITFGQGTKVEIK
notes: also called clone 1B11
B2: 2D4 (scFv) (scFv)
scFv: EVQLLESGGGLVQPGGSLRLSCAASGFTFRKYAMGWVRQAPGKGLEWVSGISGSVGSTYYADSVKGRFTISRDNSKNTLYLQMNSLRAEDTAVYYCAKVRYGWGAGAFDYWGQGTLVTVSSGGGGSGGGGSGGGGSDIQMTQSPSTLSASVGDRVTITCRASQSISSWLAWYQQKPGKAPKLLIYDASSLESGVPSRFSGSGSGTEFTLTISSLQPDDFATYYCQQYDTYPPITFGQGTKVEIK
notes: also called clone 2D4
B3: 5D7 (scFv) (scFv)
scFv: EVQLLESGGGLVQPGGSLRLSCAASGFTFSNYAMSWVRQAPGKGLEWVSGIRSSGGRTFYADSVKGRFTISRDNSKNTLYLQMNSLRAEDTAVYYCARVAFSGSFDYWGQGTLVTVSSGGGGSGGGGSGGGGSDIQMTQSPSTLSASVGDRVTITCRASQSISSWLAWYQQKPGKAPKLLIYDASSLESGVPSRFSGSGSGTEFTLTISSLQPDDFATYYCQQRNRYPPTFGQGTKVEIK
notes: also called clone 5D7
B4: 5G3 (scFv) (scFv)
scFv: EVQLLESGGGLVQPGGSLRLSCAASGFTFSSYVLSWVRQAPGKGLEWVSAIRGSAGNTYYADSVKGRFTISRDNSKNTLYLQMNSLRAEDTAVYYCARVAFSGSFDYWGQGTLVTVSSGGGGSGGGGSGGGGSDIQMTQSPSTLSASVGDRVTITCRASQSISSWLAWYQQKPGKAPKLLIYDASSLESGVPSRFSGSGSGTEFTLTISSLQPDDFATYYCQQRNRYPPTFGQGTKVEIK
notes: also called clone 5G3

Assays:
[1] = target: T2, IL-13RA2 huFc (human); experiment: SPR (Biacore), induced scFv supernatant; column head: Dissociation constant Kd(S-1)
T2 construct: Expressed in 293F cells, purified on protein A; also called human IL13RA2; recombinant IL-13RA2

[2] = target: T1, Murine IL-13RA2; experiment: ELISA by the method of Example 3, antibody concentration not given; bars assigned by their order in the legend
Experimental: (§1) The species specificity of antibodies 31C2 and 32H4 was determined by standard ELISA. Murine IL-13RA2 was purchased from Sino Biological Inc. The ELISA plate was coated with 100 ul of 5 ug/ml murine IL-13RA2 per well at 4° C. overnight. The coated ELISA plate was washed with PBS three times. 200 ul solution of 2% skim milk powder in PBS per well was added for blocking at room temperature for 1 hour. The plate was washed with PBS three times. The gradiently diluted antibodies with a starting concentration of 10 μg/ml, 3-fold serially diluted, were added and incubated at room temperature for 1 hr. The mixture was washed with PBST three times and washed with PBS three times. HRP-labeled goat anti-human Fc was added and incubated at room temperature for 1 hour. The mixture was washed with PBST three times and washed with PBS three times. After TMB was added for color development for 15 minutes, and the reaction was stopped by the addition of sulfuric acid, and read on a microplate reader.
(§2) The specificity of the antibodies 5D7, 2C7, 5G3, 2D4, 2D3 and 1B11 was determined by standard ELISA following the method of Example 3. The results were shown as in FIG. 10B.

[3] = target: T3, IL-13RA1_huFc (human); experiment: as above
T3 construct: IL-13RA1 extracellular segment, 'GS', Fc segment Asp104-Lys330 of the human IgG1 heavy chain constant region; also called human IL13RA1
Experimental: as §1, §2

[4] = target: T2, IL-13RA2 huFc; experiment: Biacore, induced supernatant of the scFv clone; parent 31C2
[5] = target: T2, IL-13RA2 huFc; experiment: SPR (Biacore T200), nickel-purified scFv
Experimental: IL-13RA2 huFc was coated on the CMS chip by amino coupling, coated to about 500 RU, and the gradiently diluted antibodies were passed through the antigen-coated channel at a flow rate of 30 ul/min as a mobile phase. The running buffer was HBS-N and the temperature was 25° C. The experimental data was analyzed by BIAevaluation 3.2 and the kinetic curves were fitted using a 1:1 langmuir model.
Affinity purification was performed using a nickel column, affinity was measured using biacore T200, and the association and dissociation constants of the affinity matured antibodies are shown as in FIG. 10A.

[6] = target: T2, IL-13RA2 huFc; experiment: Biacore, induced supernatant of the scFv clone; parent 32H4

T2 sequence (chain, as listed by the source limits assumed): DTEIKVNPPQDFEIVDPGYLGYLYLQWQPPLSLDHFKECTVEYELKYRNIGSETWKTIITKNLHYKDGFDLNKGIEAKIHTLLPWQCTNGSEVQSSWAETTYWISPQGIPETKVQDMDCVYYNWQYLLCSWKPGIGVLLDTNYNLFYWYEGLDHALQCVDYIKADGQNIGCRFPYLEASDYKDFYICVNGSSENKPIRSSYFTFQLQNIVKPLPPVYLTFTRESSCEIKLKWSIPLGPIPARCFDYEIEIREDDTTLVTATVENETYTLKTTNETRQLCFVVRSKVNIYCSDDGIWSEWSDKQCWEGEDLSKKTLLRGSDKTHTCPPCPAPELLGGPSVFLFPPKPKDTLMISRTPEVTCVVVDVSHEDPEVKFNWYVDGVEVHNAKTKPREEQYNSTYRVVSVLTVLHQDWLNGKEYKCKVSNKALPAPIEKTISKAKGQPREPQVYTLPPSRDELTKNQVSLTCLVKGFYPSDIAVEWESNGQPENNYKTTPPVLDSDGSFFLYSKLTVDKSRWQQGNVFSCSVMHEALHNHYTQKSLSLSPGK
T3 sequence (chain, as listed by the source limits assumed): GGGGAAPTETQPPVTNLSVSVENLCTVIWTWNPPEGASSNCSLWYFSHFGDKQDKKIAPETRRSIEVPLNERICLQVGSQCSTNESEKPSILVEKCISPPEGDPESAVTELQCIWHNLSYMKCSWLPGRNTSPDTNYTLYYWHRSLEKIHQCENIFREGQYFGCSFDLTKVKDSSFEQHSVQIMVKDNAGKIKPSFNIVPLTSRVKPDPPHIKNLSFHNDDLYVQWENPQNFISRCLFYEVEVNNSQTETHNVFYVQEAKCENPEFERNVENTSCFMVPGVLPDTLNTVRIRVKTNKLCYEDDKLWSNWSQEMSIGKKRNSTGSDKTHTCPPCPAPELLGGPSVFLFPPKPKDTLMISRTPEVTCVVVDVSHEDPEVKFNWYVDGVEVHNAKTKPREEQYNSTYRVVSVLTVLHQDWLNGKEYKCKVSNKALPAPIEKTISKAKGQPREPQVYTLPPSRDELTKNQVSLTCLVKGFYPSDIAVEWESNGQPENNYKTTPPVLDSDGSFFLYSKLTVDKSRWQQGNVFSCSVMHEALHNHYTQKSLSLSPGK

Binder	koff [1]	binding result [2]	binding result [3]	fold lower dissociation constant Kd than the parent clone [4]	Kd [5]	koff [5]	kon [5]	fold lower dissociation constant Kd than the parent clone [6]
B1	0.000736 s⁻¹	binds	no binding	> 10 times	17.5 nM	0.000803 s⁻¹	46000 M⁻¹ s⁻¹	–
B2	0.000837 s⁻¹	binds	no binding	> 10 times	8.92 nM	0.000745 s⁻¹	83500 M⁻¹ s⁻¹	–
B3	0.00154 s⁻¹	–	–	–	5.4 nM	0.000443 s⁻¹	82200 M⁻¹ s⁻¹	> 10 times
B4	0.000941 s⁻¹	–	–	–	8.34 nM	0.000586 s⁻¹	70300 M⁻¹ s⁻¹	> 10 times
